The text below walks through data of publication PMC8279307.

The term stoichiometry N denotes the number of molecules, sites or subunits per partner or assembly.

The target in the experiment is SARS-CoV-2 Spike receptor-binding domain (SARS-CoV-2) (UniProt P0DTC2). The experiment is described as follows: AUC.

Regarding “SARS-CoV-2 Spike receptor-binding domain (from UniProt P0DTC2) (domain or fragment)”, the stoichiometry N was determined as 2.
